Data published in article PMC5006311.

Assay: immunofluorescence confocal microscopy, HEK293
Settings: glycan lost; control: wt hENT1 (HA- or 3xFLAG-tagged)

B1: human equilibrative nucleoside transporter 1 (hENT1): N48Q (protein)
parent chain: MTTSHQPQDRYKAVWLIFFMLGLGTLLPWNFFMTATQYFTNRLDMSQNVSLVTAELSKDAQASAAPAAPLPERNSLSAIFNNVMTLCAMLPLLLFTYLNSFLHQRIPQSVRILGSLVAILLVFLITAILVKVQLDALPFFVITMIKIVLINSFGAILQGSLFGLAGLLPASYTAPIMSGQGLAGFFASVAMICAIASGSELSESAFGYFITACAVIILTIICYLGLPRLEFYRYYQQLKLEGPGEQETKLDLISKGEEPRAGKEESGVSVSNSQPTNESHSIKAILKNISVLAFSVCFIFTITIGMFPAVTVEVKSSIAGSSTWERYFIPVSCFLTFNIFDWLGRSLTAVFMWPGKDSRWLPSLVLARLVFVPLLLLCNIKPRRYLTVVFEHDAWFIFFMAAFAFSNGYLASLCMCFGPKKVKPAEAETAGAIMAFFLCLGLALGAVFSFLFRAIV
- localisation_or_trafficking: decreases
